# Results as given in US20160161469A1, “SYNTHETIC MICROFLUIDIC SYSTEMS FOR WOUND HEALING” (CFD Research Corporation, priority 2013, published 2016).
# B1: Tissue factor: primary cellular initiator of blood coagulation via the extrinsic pathway, used as a surrogate for hemostatic agents (protein, UniProt P13726 33-295, looked up)
# Tissue factor: SGTTNTVAAYNLTWKSTNFKTILEWEPKPVNQVYTVQISTKSGDWKSKCFYTTDTECDLTDEIVKDVKQTYLARVFSYPAGNVESTGSAGEPLYENSPEFTPYLETNLGQPTIQSFEQVGTKVNVTVEDERTLVRRNNTFLSLRDVFGKDLIYTLYYWKSSSSGKKTAKTNTNEFLIDVDKGENYCFSVQAVIPSRTVNRKSTDSPVECMGQEKGEFREIFYIIGAVVFVVIILVIILAISLHKCRKAGVGQSWKENSPLNVS
# System: whole blood
# Assay: Varying concentrations assay of hemostatic agent in the microfluidic hemostasis device (coagulation time at the vascular injury site)
# Type: cell-based
# Source text: Biomolecules such as tissue factor (TF) can be used as a surrogate for hemostatic agents. TF is the primary cellular initiator of blood coagulation via the extrinsic pathway. After vessel injury, the TF:VIIa complex activates the coagulation protease cascade, which leads to fibrin deposition and activation of platelets (see FIGS. 7-8). TF expression by nonvascular cells plays an essential role in hemostasis by activating blood coagulation. In contrast, TF expression by vascular cells induces intravascular thrombosis. […] TF can be allowed to adhere to the surface of the channels by incubating at 37° C. and 5% CO2. Saline wash can be initiated to wash off any residual TF.
# In order to mimic these conditions observed, TNF-α at a concentration of 10 μg/ml can be injected near the wound site of the tissue channel (e.g., outer channel) from the top inlet of the device. It should be noted that endothelial cells cultured in the vascular channel (e.g., central channel) can grow near the wound site opening, and also into the tissue area. Injection of TNF-α can activate the endothelial cells adjacent to the injection site to start expressing TF. At about 8 hour after activation, hemostasis restoration experiments can be initiated.
# Whole blood can be kept anticoagulated using corn trypsin inhibitor (CTI). […] The time taken to completely repair (block) the opening can be recorded (FIG. 8). […]
molecule,measurement,setting,value
B1,time to coagulate (coagulation time of the whole blood at the vascular injury site),Tissue factor at higher concentration of 10 μg/ml (extreme dose scenario),less than 5 minutes
same,time to coagulate (coagulation time of the whole blood at the vascular injury site),Tissue factor coated at 10 ng/ml in the tissue channel,≥ 5 min
